According to publication PMC5695019, “Expression, Purification, and Characterization of (R)-Sulfolactate Dehydrogenase (ComC) from the Rumen Methanogen Methanobrevibacter millerae SM9” (Archaea, 2017):

Columns and labels:
[1] = substrate: NC(=O)C1=CN([C@@H]2O[C@H](COP(=O)(O)OP(=O)(O)OC[C@H]3O[C@@H](n4cnc5c(N)ncnc54)[C@H](O)[C@@H]3O)[C@@H](O)[C@H]2O)C=CC1; assay: purified protein; type: biochemical, Methanobrevibacter millerae; settings: reduction reaction, 500 μM sulfopyruvate, 400 mM KCl, 50 mM BTP pH 6.5, 37°C, varied: cofactor
[2] = substrate: O=C(O)C(=O)CS(=O)(=O)O; assay: purified protein; type: biochemical, Methanobrevibacter millerae; settings: reduction reaction, 400 μM NADH, 400 mM KCl, 50 mM BTP pH 6.5, 37°C

B1: ComC ((R)-sulfolactate dehydrogenase) (Methanobrevibacter millerae) (protein)
chain: MKIMKDNEIALVKEILKKLGASEEDCELVAEATIDADLKGFTSHGLGRFPQYLISIEAGTINLEDNITIEKETPAIALINGNSGFGQAVSYKAMQIAIKKAKEVGIGCVGVHNTNHFGVTGFYSDLALRENVIGMVIANTDPAIAPLGGKEALIGTNPIAIGIPSETYITVDMATSVTARGKIIESRRKGLDLPEGWALDKDGNPTTDPEAALDGGSILPFGGFKGYALALMVEILTGPLVQAGYGTGVTGTASPTKDCTKGDLYIAIDPSKFGDFGDFVANTEDFVSQVRATGETVAIPGDLEVKRIAEAEENGIEIDAKLYEQLKGICDDLDIDIDSYLED
notes: full-length, His-tagged (pET151D TOPO, E. coli Rosetta 2), tag kept, 376 residues and 40104 Da with tag; dimer (75 kDa by gel filtration); primers encode N-terminus MKIMKDNE and C-terminus DIDSYLED
Km [1]: 55.1 ± 7.6 µM
Vmax [1]: 73.1 µmol/min/mg
kcat [1]: 48.9 ± 2.2 s⁻¹
Km [2]: 196 ± 71 µM
Vmax [2]: 93.9 µmol/min/mg
kcat [2]: 62.8 ± 9.7 s⁻¹
